Here are results for 14 sequences from the DeepSol protein solubility set.

The data set is described as follows: soluble on expression in E. coli; label from the status in PepcDB or PDB records.
Regarding “MAHHHHHHMERTNLGHGAVGSLAQLCDELRKSYAAAKEIEQRDTTLTKSETANTLKETSNLFALGMEKLISSDGNVVEVKDAIALAEDAEREVAALRAEKARLQSTEDGHRSKLSATGSDAEVEAFVAYAKELSELHDHLFLARVVFKGVLTKRLEDIRDDRLSQQDKRFTDPKSWDVKKGVLERMLQSLRTKTAQLQLSAKTYLDEDEALFLEVMNLATEAGDHVRRGDAMREARDEKLKVFYAECAKLTGWCRQQLTNLEAMQEPDHVQEYCATLADNYPTMSNNFAVLFNSVQEYVQASLIPVHKALLEAEEVWLYLQVSTLERLSKTLFEIHPQSPLDVEVEKYSSYPEHAAKFLQDLERYLAAQHRQQDEVAELDSVHKECQEVLHTLSGQFAELPSEVHAFAQRAQALRAGYQCFREALLQRLTYVSPAASTVVESKRRQEEFENCVRELKSWAAEASHGESWRDIYSKIVEIKQMIKSEQASLEMKRERAVASGQSR”, the “soluble on expression in E. coli” value is on record as “not soluble”.
The result for “MSNPLAVDVPTFTKLHNVAQWLSQQPPSPRLFDQKENGFSQNFQPFLKTVNSCTIPDDLHEEMMRLKRKENAFKTALCKTFQLTRACSYGEQCKFAHSVEELQLKQKNRGVNHPKYKTVLCDNFSRTGHCKYGTKCQFIHRAVEPTPAQNPLMPQFSSWFAPSSGLSREFLDNFGASASSSSTDFS” reads “not soluble”; that for “MRGSHHHHHHGMASMVNTKPEKTEEDSEEVREQKHKTFVEKYEKQIKHFGMLRRWDDSQKYLSDNVHLVCEETANYLVIWCIDLEVEEKCALMEQVAHQTIVMQFILELAKSLKVDPRACFRQFFTKIKTADRQYMEGFNDELEAFKERVRGRAKLRIEKAMKEYEEEERKKRLGPGGLDPVEVYESLPEELQKCFDVKDVQMLQDAISKMDPTDAKYHMQRCIDSGLWVPNSKASEAKEGEEAGPGDPLLEAVPKTGDEKDVSV”, “soluble”; that for “SPLLLYTCLLWLPTSGLWTVQAMDPNAAYVNMSNHHRGLASANVDFAFSLYKHLVALSPKKNIFISPVSISMALAMLSLGTCGHTRAQLLQGLGFNLTERSETEIHQGFQHLHQLFAKSDTSLEMTMGNALFLDGSLELLESFSADIKHYYESEVLAMNFQDWATASRQINSYVKNKTQGKIVDLFSGLDSPAILVLVNYIFFKGTWTQPFDLASTREENFYVDETTVVKVPMMLQSSTISYLHDAELPCQLVQMNYVGNGTVFFILPDKGKMNTVIAALSRDTINRWSAGLTSSQVDLYIPKVTISGVYDLGDVLEEMGIADLFTNQANFSRITQDAQLKSSKVVHKAVLQLNEEGVDTAGSTGVTLNLTSKPIILRFNQPFIIMIFDHFTWSSLFLARVMNPV”, “soluble”.
Consider “MAHHHHHHSLNVLSVSSEIYPLIKTGGLADVVGALPIALEAHGVRTRTLIPGYPAVKAAVTDPVKCFEFTDLLGEKADLLEVQHERLDLLILDAPAYYERSGGPYLGQTGKDYPDNWKRFAALSLAAARIGAGVLPGWRPDMVHAHDWQAAMTPVYMRYAETPEIPSLLTIHNIAFQGQFGANIFSKLALPAHAFGMEGIEYYNDVSFLKGGLQTATALSTVSPSYAEEILTAEFGMGLEGVIGSRAHVLHGIVNGIDADVWNPATDHLIHDNYSAANLKNRALNKKAVAEHFRIDDDGSPLFCVISRLTWQKGIDLMAEAVDEIVSLGGRLVVLGAGDVALEGALLAAASRHHGRVGVAIGYNEPLSHLMQAGCDAIIIPSRFEPCGLTQLYALRYGCIPVVARTGGLADTVIDANHAALASKAATGVQFSPVTLDGLKQAIRRTVRYYHDPKLWTQMQKLGMKSDVSWEKSAGLYAALYSQLISKGHEG”, for which the “soluble on expression in E. coli” value is reported as “not soluble”.
The result for “PKKEVVRIHASSGTTGKPTVVGYTKKDLKTWAELISRVVTAAGVTDEDTAQVAFGYGLFTGGFGLHYGLENVGASVIPMSSGNTEKQIMLMKDFETTVLICTPSYALYISEVAQKMGIDPKKDLKLKIGLFGGEACSESARTEIESKWGILATQNYGMSELMGPGVSGECEYQCGMHIS” reads “not soluble”; that for “MNGPEVLRFAANLYRVPVEGGYFLVDAGLPWEARRLLSLLQEPPRLLFLTHHHLDHAGGARALWERFRVPVLAHPQEWAYLTKRKPRPPLPLPLLGKGARQLGADDPGGGPRPRGGRGWRSSASGWSTSRGTPLGQVGLFREGVLLAGNALRGRGLPPRFINEDHALARRTVRKILELGVKRVYLGHGGPLSGEEVAAIARRLGV”, “soluble”; that for “MSLSSGEHEASRVLRERDYRWEGTEEEAYKAEGTHFSGARRQTLVGRPAGQEAPAFETRYFEVEPGGYTTLERHEHTHVVMVVRGHAEVVLDDRVEPLTPLDCVYIAPHAWHQIHATGANEPLGFLCIVDSDRDRPQRPDADDLARMCADPAVARRIRTEGHHHHHH”, “soluble”.
As for “GPGSMAEAQARKRTESLSKMYSKTPISEGYALWDREYLLAAMRVFTFKAEGAPPFVLAPYLDSVAEITLQMHDLEDAAEQFAIAAGKYQLIDQKVLADLMRFKVTEVSSSAEIALEQVQAYLAAQDPQANGSGENSTVQTKSAFARVYAYLADLLLRSVDEEQASEAVLAQALTAAELAVQLGWDRDHCGWLLVGDVHAASGNYEKAKEAYGKALQRCPHYAKALERQIGVVQQLVRAADECGDDAGKATLNTELLTLLSRSIEVHPLANTFREKAFLLSEMHGDDAALAFVAETLEHPPQEEIEVIGSSAKEMTSTLLKAKAAILADGNQLDAALEAATKALEVDPNDEEAKSIIRDLHESMAA”, the “soluble on expression in E. coli” value is reported as “soluble”.
The result for “MGHHHHHHGGHMSLRSYLGSISTSKTEVNSMKMHVLKLLIPTMALLLSACASLPPELGNPDDKSVVTQYSAWLERDPATQSPVRMGGVVANISNQKDRTRVELVNLPIDSAGRPNIHQEPQGRFVAYVPGFLDPITYGEGRLLTLYGTTAPSEQGKVGDYEHTYPVMNAQGYHLWRVEERVEVDDIGPYMFPCRGFYCWPRTMPERDGKIIQEVKEGGS” reads “not soluble”; that for “MTDQVFGKVSKVVCVGAGYVGGPTCAMIAHKCPHITVTVVDMNTAKIAEWNSDKLPIYEPGLDEIVFAARGRNLFFSSDIPKAIAEADLIFISVNTPTKMYGRGKGMAPDLKYVESVSRTIAQYAGGPKIVVEKSTVPVKAAESIGCILREAQKNNENLKFQVLSNPEFLAEGTAMKDLANPDRVLIGGESSPEGLQAVAELVRIYENWVPRNRIITTNTWSSELSKLVANAFLAQRISSINSISAVCEATGAEISEVAHAVGYDTRIGSKFLQASVGFGGSCFQKDVLSLVYLCESLNLPQVADYWQGVININNWQRRRFADKIIAELFNTVTDKKIAIFGFAFKKNTGDTRESSAIHVIKHLMEEHAKLSVYDPKVQKSQMLNDLASVTSAQDVERLITVESDPYAAARGAHAIVVLTEWDEFVELNYSQIHNDMQHPAAIFDGRLILDQKALREIGFRTFAIGTSPDQAYNLFGTAGY”, “soluble”; that for “MSLHGVPFGTVPPMGTIGLIAAMPDEIRPFLRLASPAARLHGGRFPIWRLRVGNDDIVLVESGMGIDRATAATDALVAAASPVAILSFGFGGAALPGLKVGDLAVGMTSWFAGTEGIVLRRGIDRNLAEKLAEELNRICNGVTRGEIITSARILKKGDLAHSLPNGISSPILDMETAAVAEAAHRRGIPIVALRAISDDAEEELSFSLDEFTDDDMAIRPRKVLATIARKPWIIPQLLRLARNSRIAGKRLAQGVLATAEFLSRGEGHHHHHH”, “not soluble”.
On to “MSLDSKIDILIVVNMFLTGFDSKVLNTLYVDKNLMYHDLIQAYSRTNRVEKESKPFGKIVNYRDLKKETDDALRVFSQTNDTDTILMRSYEEYKKEFMDAYRELKMIVPTPHMVDDIQDEGHHHHHH”, for which the “soluble on expression in E. coli” value was “not soluble”.
The result for “MGSDKIHHHHHHMAKIAYILLCHKDPDAIIMQAERLTAAGDYMSIHFDARARKADFARIRKALADNPNVTFARRRIKCGWGEWSLVQATLNAIEAAVDEFPRATHFYMLSGDCMAIKTAEYAHSFLDAQDKDYIESFDYFESDWIKTGWKEERLIYRHWFNERTQKRRFYAMFQAQKRLGLTREIPSDIQVMIGSQWWCLRRRTIEWILDFTRKRRDVMQFFATTWIPDETFFQTLVRHLIPEDEIDPRTLTFLMFSDYGMPVSFYNDHYDLLLSQDFLFARKISPEAKELKARLGRLYAAHGVQFQISNEGRNLYKFLTGRGRIGRRFSMRFWETESTLGRERELMILVCKKWHVAKRLLDQIRQVTNVPSIEYLFNEEGTPLPDLGGIQATLEKRTRHRRALMRMLFEYFDTDRLVICLDPTNLELMHDFFSDRSVTRMLEIECQFTDEYLIGHSYRVGLAGERTPKATLERLLPTIRNEMTYEADRIRDAGFARYGRIHQTSTPEENADKVAEFLSIPWDQALRITQTDHLFAD” reads “not soluble”.
